A short description of data set [1]: Cyclic voltammetry, midpoint potential. Format: physicochemical. The note with it: pH 10, measured immediately after generation. As to the method: Electrochemical data were collected. A 3 mL sample of 3 mM Ni-NCC was prepared in 50 mM sodium borate at pH 10. CV data were collected with a CH1812C Electrochemical Analyzer potentiostat (CH Instruments) with a three-electrode setup (platinum working electrode, Bioanalytical Systems, Inc.; Pt auxiliary electrode; Ag/AgCl reference electrode) in a glass CV cell. Potential was applied from zero to 1.2 V with a scan rate of 0.2 V per second, and current was measured. The same experiment was attempted on a 3 mM Ni-NCC sample in 50 mM potassium phosphate at the same pH. The sample was incubated for 24 hours and analyzed again.
Electrochemical data were collected as previously described. 3-mL samples of 3 mM Ni-GGNCC (SEQ ID NO. 1) and Ni-GGGCC (SEQ ID NO. 3) were prepared in 50 mM potassium phosphate at pH 7.4. After incorporation, pH was raised to 10 to observe more intense signal. Cyclic voltammetry (CV) data were collected with a CH1812C Electrochemical Analyzer potentiostat (CH Instruments) with a three-electrode setup (platinum working electrode, Bioanalytical Systems, Inc.; Pt auxiliary electrode; Ag/AgCl reference electrode) in a glass CV cell. Potential was applied from zero to 1.2 V with a scan rate of 0.2 V per second, and current was measured.

Data set [2] is described as follows: Photopolymerization of hydroxy ethyl methacrylic acid (HEMA), rate by FTIR. To be noted: light 550 mW cm-2 for 40 seconds. As to the method: Photopolymerization of hydroxy ethyl methacrylic acid (HEMA) was initiated using a visible light-curing unit (Spectrum® 800, Dentsply, Milford, Del., USA) at an intensity of 550 mW cm-2 for 40 seconds. The subsequent rate of polymerization was measured via FTIR and is reported as a normalized ratio of peak intensities from unreacted and reacted monomer (1455 cm^−1 and 1673 cm^−1). The rate of polymerization was altered by the addition of Ni-NCC and Ni-GGNCC (SEQ ID NO. 1). See FIG. 31, illustrating the percentage of polymer remaining over time.

Data set [3] can be described thus: Ni-SOD xanthine/xanthine oxidase coupled assay (superoxide scavenging). To be noted: cytochrome c, absorbance at 550 nm, reaction buffer pH 7.8. The class given is biochemical. As for the experimental part:
Ni-SOD activity was determined, except Ni-NCC was generated in situ using one equivalent NiSO4. Ni-NCC was aged for 0-120 minutes, and the Ni-SOD activity was determined using the standard xanthine/xanthine oxidase method developed by Crappo and coworkers. All reagents were generated in 50 mM potassium phosphate, 100 μM EDTA reaction buffer at pH 7.8 except for Ni-NCC, which was generated in 50 mM potassium phosphate, pH 7.4. 600 μM cytochrome c from bovine heart (Sigma), 300 μM xanthine (Sigma) and enough xanthine oxidase from buttermilk (Sigma) to cause a change in absorbance at […] of 0.02-0.04 AU per minute were added to a final volume of 300 μL with reaction buffer. The change in absorbance at 550 nm was monitored on a Cary 100 UV-Visible spectrophotometer (Varian). The assay was performed with 100 μM Ni-NCC.
Superoxide scavenging activity was determined as reported previously, except Ni-peptides were generated in situ using one equivalent of NiSO4. Superoxide scavenging activity of Ni-GGGCC (SEQ ID NO. 3), Ni-GGNCC (SEQ ID NO. 1), Ni-GNNCC (SEQ ID NO. 4), and Ni-GNGCC (SEQ ID NO. 5) was determined using the standard xanthine/xanthine oxidase method developed by Crapo and coworkers. […] The change in absorbance at 550 nm was monitored on a Cary 100 UV-Visible spectrophotometer (Varian).

No end group written: not given here.

For “Ni-GGGCC: nickel complex of pentapeptide GGGCC (SEQ ID NO. 3) (cysteine pairing not given here; also: nickel complex)”, in data set [1], the midpoint potential was determined as 0.78 V vs Ag/AgCl.
In data set [1], “XXLLL-GGNCC (not fully specified (N-terminus); cysteine pairing not given here; also: metallated with nickel) [Ni-GGNCC]” yielded a midpoint potential of 0.8 V vs Ag/AgCl. Further, the “effect on rate of polymerization” value in data set [2] is listed as “slowed the rate of polymerization”. In data set [3], this substance had an IC50 of 9.1 µM.

A word on the IC50: it is the concentration that inhibits the measured activity by half.
